Values belong to the binder of their own block, whether it stands above or below them. Where no end group is shown, it is not given here.
Columns and labels:
[1] = target: human DPF3b tandem PHD finger (residues 261–372) (human, UniProt Q92784-1 261-372); experiment: NMR solution structure
DPF3b PHD12 F264A = DPF3b PHD12 F264A (human, UniProt Q92784-1 261-372, F264A); experiment: ITC
DPF3b PHD12 D263A = DPF3b PHD12 D263A (human, UniProt Q92784-1 261-372, D263A); experiment: ITC
[2] = target: DPF3b PHD12 with Ala mutation of Glu315 (human, UniProt Q92784-1 261-372, Ala mutation of Glu315); experiment: ITC
[3] = target: T1, DPF3b PHD12 with Ala mutation of Asp335 (human, UniProt Q92784-1 261-372, Ala mutation of Asp335); experiment: ITC
T1 sequence (looked up): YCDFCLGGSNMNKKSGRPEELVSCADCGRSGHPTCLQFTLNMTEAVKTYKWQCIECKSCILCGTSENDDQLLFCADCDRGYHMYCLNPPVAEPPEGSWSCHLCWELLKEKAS

binding result [1]: binds
Binder: GLGKGGAK(Ac)RHRKVLR (peptide, UniProt P62805 10-24, looked up) [histone H4K16ac peptide (residues 9–23)]

binding result (DPF3b PHD12 F264A): binds | binding result (DPF3b PHD12 D263A): binds
Binder: ARTKQTARKSTGGKAPRK (peptide, UniProt P68431 2-19, looked up) [unmodified histone H3 peptide (residues 1–18)]

binding result [2]: binds | binding result [3]: binds
Binder: ARTKQTARKSTGGK(Ac)APRK (peptide, UniProt P68431 2-19, looked up) [histone H3 peptide acetylated at lysine 14 (residues 1–18)]
